# Measured values published in patent US20250152742A1, “COMPOSITIONS AND METHODS FOR NEUROLOGICAL DISEASES” (Trames Bio, Inc., priority 2022, published 2025).
# Numbering of substitutions follows the chain as printed. Numbers in names are those of the source.
# B1: CODA965: engineered receptor: Y140C in SEQ ID NO: 33 (protein)
# chain: MRCSPGGVWLALAASLLHVSLQGEFQRKLYKELVKNYNPLERPVANDSQPLTVYFSLSLLQIMDVDEKNQVLTTNIWLQMSWTDHYLQWNVSEYPGVKTVRFPDGQIWKPDILLYNSADERFDATFHTNVLVNSSGHCQCLPPGIFKSSCPMDLKNFPMDVQTCKLKFGSWSYGGWSLDLQMQEADISGYIPNGEWDLVGIPGKRSERFYECCKEPYPDVTFTVTMRRRMGYYLIQMYIPSLLIVILSWISFWINMDAAPARVGLGITTVLTMTTQSSGSRASLPKVSYVKAIDIWMAVCLLFVFSALLEYAAVNFVSRQHKELLRFRRKRRHHKSPMLNLFQEDEAGEGRFNFSAYGMGPACLQAKDGISVKGANNSNTTNPPPAPSKSPEEMRKLFIQRAKKIDKISRIGFPMAFLIFNMFYWIIYKIVRREDVHNQ
# modifications: synthetic sequence of chimeric LGIC
# B2: CODA1047: engineered receptor: R101F, Y210V in SEQ ID NO: 33 (protein)
# chain: B1 chain with R101F, C140Y, Y210V
# modifications: synthetic sequence of chimeric LGIC
# B3: CODA1053: engineered receptor: R101M, L131A in SEQ ID NO: 33 (protein)
# chain: B1 chain with R101M, L131A, C140Y
# modifications: synthetic sequence of chimeric LGIC
# Tested on: engineered chimeric receptor SEQ ID NO: 33 and its mutants (human α7-nAChR ligand binding domain / human GlyRα1 ion pore domain) in Lenti-X 293T cells
# Assay: YFP fluorescence quenching anion reporter plate reader assay (percent quench, EC50)
# Assay type: cell-based
# Settings: for YFP fluorescence quenching using CNL001 (percent quench): receptor named in row; for YFP fluorescence quenching using Varenicline, 3 nM var: ligand Varenicline 3 nM; for YFP fluorescence quenching using Varenicline, 30 nM var: ligand Varenicline 30 nM; for YFP fluorescence quenching using Varenicline, 300 nM var: ligand Varenicline 300 nM; for YFP fluorescence quenching using Varenicline, 500 nM var: ligand Varenicline 500 nM; for YFP fluorescence quenching using Varenicline, 1 uM var: ligand Varenicline 1 uM
# How it was run: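 Lenti-X 293T cells co-expressing an anion-quenchable YFP were transiently transfected with receptor DNA, then ligand was added in NaI-substituted buffer (pH 7.2) after 30 min at 37 °C. Fluorescence was read about 2 min; percent quench = mean of last 10 s over 15 s pre-ligand baseline.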
# [1] = 1 nM CNL001, first column so headed
# [2] = 1 nM CNL001, second column so headed
# [3] = 3 nM brd (TC-5619/Bradanicline)
# [4] = 10 nM CNL001, first column so headed
# [5] = 10 nM CNL001, second column so headed
# [6] = 30 nM brd (TC-5619/Bradanicline)
# [7] = 50 nM CNL001, first column so headed
# [8] = 50 nM CNL001, second column so headed
# [9] = 100 nM CNL001, first column so headed
# [10] = 100 nM CNL001, second column so headed
# [11] = 300 nM brd (TC-5619/Bradanicline)
# [12] = 1 uM CNL001, first column so headed
# [13] = 1 uM CNL001, second column so headed
# [14] = 1 nM brd (TC-5619/Bradanicline)
# [15] = 10 nM brd (TC-5619/Bradanicline)
# [16] = 100 nM brd (TC-5619/Bradanicline)
molecule,measurement,setting,value
B1,YFP fluorescence quenching using CNL001 (percent quench),[1],−12.765%
same,YFP fluorescence quenching using CNL001 (percent quench),[2],−12.608%
same,YFP fluorescence quenching using TC-5619/Bradanicline (percent quench),[3],−18.49%
same,YFP fluorescence quenching using CNL001 (percent quench),[4],68.134%
same,YFP fluorescence quenching using CNL001 (percent quench),[5],71.394%
same,YFP fluorescence quenching using TC-6683 (percent quench),30 nM TC-6683,−8.21%
same,YFP fluorescence quenching using TC-5619/Bradanicline (percent quench),[6],22.66%
same,YFP fluorescence quenching using CNL001 (percent quench),[7],80.298%
same,YFP fluorescence quenching using CNL001 (percent quench),[8],82.159%
same,YFP fluorescence quenching using ABT-126 (percent quench),50 nM abt (ABT-126),−10.75%
same,YFP fluorescence quenching using CNL001 (percent quench),[9],82.404%
same,YFP fluorescence quenching using CNL001 (percent quench),[10],82.14%
same,YFP fluorescence quenching (percent quench),100 nM CNL002,43.24%
same,YFP fluorescence quenching using ABT-126 (percent quench),100 nM abt (ABT-126),−4.11%
same,YFP fluorescence quenching using AZD-0328 (percent quench),100 nM azd0328,−16.69%
same,YFP fluorescence quenching using TC-6683 (percent quench),300 nM TC-6683,−16.37%
same,YFP fluorescence quenching using ABT-126 (percent quench),300 nM abt (ABT-126),18.93%
same,YFP fluorescence quenching using AZD-0328 (percent quench),300 nM azd0328,1.3%
same,YFP fluorescence quenching using TC-5619/Bradanicline (percent quench),[11],38.02%
same,YFP fluorescence quenching using CNL001 (percent quench),[12],82.34%
same,YFP fluorescence quenching using CNL001 (percent quench),[13],80.649%
same,YFP fluorescence quenching (percent quench),1 uM CNL002,42.72%
same,YFP fluorescence quenching using ABT-126 (percent quench),1 uM abt (ABT-126),52.64%
same,YFP fluorescence quenching using TC-6683 (percent quench),3 uM TC-6683,−19.48%
same,YFP fluorescence quenching (percent quench),10 uM ach (acetylcholine),−21.71%
same,YFP fluorescence quenching (percent quench),30 uM CNL002,51.43%
same,YFP fluorescence quenching using TC-6683 (percent quench),30 uM TC-6683,−24.32%
same,YFP fluorescence quenching using AZD-0328 (percent quench),30 uM azd0328,21.78%
same,YFP fluorescence quenching using TC-6683 (percent quench),100 uM TC-6683,−24.99%
same,YFP fluorescence quenching (percent quench),100 uM ach (acetylcholine),3.49%
same,YFP fluorescence quenching (percent quench),1 mM ach (acetylcholine),63.34%
same,YFP fluorescence quenching (percent quench),3 mM ach (acetylcholine),51.92%
same,"YFP fluorescence quenching using Facinicline, 30 nM fac",ligand Facinicline 30 nM,−12.29
same,"YFP fluorescence quenching using Facinicline, 300 nM fac",ligand Facinicline 300 nM,20.11
same,"YFP fluorescence quenching using Facinicline, 30 uM fac",ligand Facinicline 30 uM,37.62
same,"YFP fluorescence quenching using TC-6987, 1 uM tc6987",ligand TC-6987 1 uM,2.73
same,"YFP fluorescence quenching using TC-6987, 10 uM tc6987",ligand TC-6987 10 uM,30.37
same,"YFP fluorescence quenching using TC-6987, 500 uM tc6987",ligand TC-6987 500 uM,33.07
same,"YFP fluorescence quenching using Varenicline, 3 nM var",first column,−17.716
same,"YFP fluorescence quenching using Varenicline, 3 nM var",second column,−23.019
same,"YFP fluorescence quenching using Varenicline, 30 nM var",first column,−14.993
same,"YFP fluorescence quenching using Varenicline, 30 nM var",second column,−12.182
same,"YFP fluorescence quenching using Varenicline, 300 nM var",first column,−11.731
same,"YFP fluorescence quenching using Varenicline, 300 nM var",second column,−10.13
same,"YFP fluorescence quenching using Varenicline, 500 nM var",first column,−12.518
same,"YFP fluorescence quenching using Varenicline, 500 nM var",second column,−15.043
same,"YFP fluorescence quenching using Varenicline, 1 uM var",first column,−13.385
same,"YFP fluorescence quenching using Varenicline, 1 uM var",second column,−17.022
B2,YFP fluorescence quenching using CNL001 (percent quench),[1],−7.82%
same,YFP fluorescence quenching using CNL001 (percent quench),[2],−8.382%
same,YFP fluorescence quenching using TC-5619/Bradanicline (percent quench),[14],−5.548%
same,YFP fluorescence quenching using TC-5619/Bradanicline (percent quench),[3],−9.432%
same,YFP fluorescence quenching using CNL001 (percent quench),[4],−5.381%
same,YFP fluorescence quenching using CNL001 (percent quench),[5],−1.431%
same,YFP fluorescence quenching using TC-5619/Bradanicline (percent quench),[15],−3.068%
same,YFP fluorescence quenching using TC-6683 (percent quench),30 nM TC-6683,−24.195%
same,YFP fluorescence quenching using TC-5619/Bradanicline (percent quench),[6],2.368%
same,YFP fluorescence quenching using CNL001 (percent quench),[7],−0.999%
same,YFP fluorescence quenching using CNL001 (percent quench),[8],3.909%
same,YFP fluorescence quenching using ABT-126 (percent quench),50 nM abt (ABT-126),−14.1%
same,YFP fluorescence quenching using CNL001 (percent quench),[9],−0.823%
same,YFP fluorescence quenching using CNL001 (percent quench),[10],−5.885%
same,YFP fluorescence quenching using ABT-126 (percent quench),100 nM abt (ABT-126),−11.72%
same,YFP fluorescence quenching using TC-5619/Bradanicline (percent quench),[16],47.529%
same,YFP fluorescence quenching using TC-6683 (percent quench),300 nM TC-6683,−24.234%
same,YFP fluorescence quenching using ABT-126 (percent quench),300 nM abt (ABT-126),−12.98%
same,YFP fluorescence quenching using TC-5619/Bradanicline (percent quench),[11],74.413%
same,YFP fluorescence quenching using CNL001 (percent quench),[12],1.638%
same,YFP fluorescence quenching using CNL001 (percent quench),[13],3.483%
same,YFP fluorescence quenching using ABT-126 (percent quench),1 uM abt (ABT-126),−15.09%
same,YFP fluorescence quenching using TC-6683 (percent quench),3 uM TC-6683,−21.291%
same,YFP fluorescence quenching (percent quench),10 uM ach (acetylcholine),−4.26%
same,YFP fluorescence quenching using TC-6683 (percent quench),30 uM TC-6683,−16.363%
same,YFP fluorescence quenching using TC-6683 (percent quench),100 uM TC-6683,−24.9%
same,YFP fluorescence quenching (percent quench),100 uM ach (acetylcholine),−13.05%
same,YFP fluorescence quenching (percent quench),300 uM ach (acetylcholine),−11.73%
same,YFP fluorescence quenching (percent quench),500 uM ach (acetylcholine),−10.75%
same,YFP fluorescence quenching (percent quench),1 mM ach (acetylcholine),−8.81%
same,YFP fluorescence quenching (percent quench),3 mM ach (acetylcholine),−6.77%
same,YFP fluorescence quenching (percent quench),10 mM ach (acetylcholine),−1.03%
same,"YFP fluorescence quenching using Varenicline, 3 nM var",first column,−3.035
same,"YFP fluorescence quenching using Varenicline, 3 nM var",second column,−0.786
same,"YFP fluorescence quenching using Varenicline, 30 nM var",first column,−5.181
same,"YFP fluorescence quenching using Varenicline, 30 nM var",second column,0.669
same,"YFP fluorescence quenching using Varenicline, 300 nM var",first column,−2.748
same,"YFP fluorescence quenching using Varenicline, 300 nM var",second column,−6.708
same,"YFP fluorescence quenching using Varenicline, 500 nM var",first column,−9.123
same,"YFP fluorescence quenching using Varenicline, 500 nM var",second column,−9.869
same,"YFP fluorescence quenching using Varenicline, 1 uM var",first column,−6.702
same,"YFP fluorescence quenching using Varenicline, 1 uM var",second column,−7.26
B3,YFP fluorescence quenching using CNL001 (percent quench),[1],−8.554%
same,YFP fluorescence quenching using CNL001 (percent quench),[2],−13.711%
same,YFP fluorescence quenching using TC-5619/Bradanicline (percent quench),[14],0.008%
same,YFP fluorescence quenching using TC-5619/Bradanicline (percent quench),[3],43.21%
same,YFP fluorescence quenching using CNL001 (percent quench),[4],39.631%
same,YFP fluorescence quenching using CNL001 (percent quench),[5],66.809%
same,YFP fluorescence quenching using TC-5619/Bradanicline (percent quench),[15],77.672%
same,YFP fluorescence quenching using TC-5619/Bradanicline (percent quench),[6],76.277%
same,YFP fluorescence quenching using CNL001 (percent quench),[7],82.122%
same,YFP fluorescence quenching using CNL001 (percent quench),[8],82.031%
same,YFP fluorescence quenching using ABT-126 (percent quench),50 nM abt (ABT-126),−27.01%
same,YFP fluorescence quenching using CNL001 (percent quench),[9],83.312%
same,YFP fluorescence quenching using CNL001 (percent quench),[10],83.986%
same,YFP fluorescence quenching using ABT-126 (percent quench),100 nM abt (ABT-126),−18.76%
same,YFP fluorescence quenching using TC-5619/Bradanicline (percent quench),[16],76.856%
same,YFP fluorescence quenching using ABT-126 (percent quench),300 nM abt (ABT-126),−17.8%
same,YFP fluorescence quenching using TC-5619/Bradanicline (percent quench),[11],75.32%
same,YFP fluorescence quenching using CNL001 (percent quench),[12],84.363%
same,YFP fluorescence quenching using CNL001 (percent quench),[13],83.877%
same,YFP fluorescence quenching using ABT-126 (percent quench),1 uM abt (ABT-126),−6.55%
same,YFP fluorescence quenching (percent quench),10 uM ach (acetylcholine),−3.98%
same,YFP fluorescence quenching (percent quench),100 uM ach (acetylcholine),−11%
same,YFP fluorescence quenching (percent quench),300 uM ach (acetylcholine),−7.92%
same,YFP fluorescence quenching (percent quench),500 uM ach (acetylcholine),7.36%
same,YFP fluorescence quenching (percent quench),1 mM ach (acetylcholine),57.28%
same,YFP fluorescence quenching (percent quench),3 mM ach (acetylcholine),60.54%
same,YFP fluorescence quenching (percent quench),10 mM ach (acetylcholine),79.46%
same,"YFP fluorescence quenching using Varenicline, 3 nM var",first column,74.835
same,"YFP fluorescence quenching using Varenicline, 3 nM var",second column,76.119
same,"YFP fluorescence quenching using Varenicline, 30 nM var",first column,77.608
same,"YFP fluorescence quenching using Varenicline, 30 nM var",second column,79.015
same,"YFP fluorescence quenching using Varenicline, 300 nM var",first column,80.71
same,"YFP fluorescence quenching using Varenicline, 300 nM var",second column,79.002
same,"YFP fluorescence quenching using Varenicline, 500 nM var",first column,78.709
same,"YFP fluorescence quenching using Varenicline, 500 nM var",second column,78.884
same,"YFP fluorescence quenching using Varenicline, 1 uM var",first column,79.688
same,"YFP fluorescence quenching using Varenicline, 1 uM var",second column,80
